Experimental data: US20190177416A1 (NANOMAB TECHNOLOGY, published 2019)
Positions count from the first letter of the chain named.

B1: SEQ ID NO 18 (VHH)
VHH: QVQLQESGGGSVQAGGSLRLSCAASGYTYSSDGMGWFRQTPGKEREGVAAISPTGRRTEYADSVKGRFTISRDNNKNMLSLQMNSLKPEDTGMYYCAREGSWSFSLANSAVRSWGQGTQVTVSS
notes: pMECS-expressed; also called VHH numbered 18
B2: SEQ ID NO 20 (VHH)
VHH: QVQLQESGGGLVQPGGSLRLSCAASGFTGSIYAMSWVRQAPGKGLEWVSTISSSGGRRFYADSVKGRFTISRDNAKNTLYLQLNSLKTEDTAMYYCARCSDIYCDNGASYRGQGTQVTVSS
notes: pMECS-expressed; also called VHH numbered 20
B3: SEQ ID NO 58 (VHH)
VHH: B2 VHH with A24L, G29S, S30T, S52N, S54D, R57Y, F59Y, L86P, D105Y, A108P
notes: pMECS-expressed; also called VHH numbered 58
B4: SEQ ID NO 61 (VHH)
VHH: QVQLQESGGGLVQPGGSLRLSCAASGFDFSSRAMSWVRQAPGKGLEWVSTINSGGGSRYYADSVKGRFTTSRDNAKNTLALQLNSLKTEDTAMYYCARCSDIYCDNGAWYRGQGTQVTVSS
notes: pMECS-expressed; also called VHH numbered 61
B5: SEQ ID NO 74 (VHH)
VHH: B2 VHH with L11S, P14A
notes: pMECS-expressed; also called VHH numbered 74
B6: SEQ ID NO 70 (VHH)
VHH: B4 VHH with D28T, S31I, G56D, T70I, L79M, A80Y, A97V, D105Y, W109S
notes: pMECS-expressed; also called VHH numbered 70
B7: SEQ ID NO 45 (VHH)
VHH: B2 VHH with G29F, Y32K, S52D, S54G, F59Y, N84S, Y95F, D105Y
notes: pMECS-expressed; also called VHH numbered 45
B8: SEQ ID NO 42 (VHH)
VHH: QVQLQESGGGSVQTGGSLTLSCAASTSIYSYNYMAWFRQAPGKGREGVAAVYIGDGRPYYADSVKGRFTISPDSAKNTVYLQMNSLKPEDTAMYYCAAAPGPLSRHYWYTSANYDYWGPGTQVTVSS
notes: pMECS-expressed; also called VHH numbered 42
B9: SEQ ID NO 43 (VHH)
VHH: B8 VHH with T19R, T26S, Y29A, Y31N, R38S, P72L, H106N, P119Q
notes: pMECS-expressed; also called VHH numbered 43
B10: SEQ ID NO 60 (VHH)
VHH: B8 VHH with T19R, Y31M, R38S, G54E, S74R, H106N, P119Q
notes: pMECS-expressed; also called VHH numbered 60
B11: SEQ ID NO 64 (VHH)
VHH: B8 VHH with T19R, Y31N, R38S, G54D, P72L, A99T, R105Q, P119Q
notes: pMECS-expressed; also called VHH numbered 64
B12: SEQ ID NO 44 (VHH)
VHH: B8 VHH with Q13R, T19R, Y31L, R38S, G54D, S63H, P72L, S74T, H106N, P119Q
notes: pMECS-expressed; also called VHH numbered 44
B13: SEQ ID NO 82 (VHH)
VHH: B8 VHH with T19R, A23T, Y31N, R38S, G54D, P72L, H106N, P119Q
notes: pMECS-expressed; also called VHH numbered 82
B14: SEQ ID NO 77 (VHH)
VHH: B8 VHH with T19R, A23T, Y31N, R38S, G54D, P72L, H106N, P119Q
notes: pMECS-expressed; also called VHH numbered 77
B15: SEQ ID NO 52 (VHH)
VHH: B8 VHH with T19R, Y31N, I53V, G54D, P72R
notes: pMECS-expressed; also called VHH numbered 52
B16: SEQ ID NO 55 (VHH)
VHH: B8 VHH with T19R, A23V, Y29F, Y31N, R38S, P72L, R105H, H106N, P119Q
notes: pMECS-expressed; also called VHH numbered 55
B17: SEQ ID NO 68 (VHH)
VHH: B8 VHH with T19R, A23T, A24C, Y31N, R38S, P72L, R105H, H106N, P119Q
notes: pMECS-expressed; also called VHH numbered 68
B18: SEQ ID NO 46 (VHH)
VHH: B8 VHH with T19R, Y29D, Y31N, G54D, P72L
notes: pMECS-expressed; also called VHH numbered 46
B19: SEQ ID NO 62 (VHH)
VHH: B8 VHH with T14A, T19R, Y31N, A40T, G54D, P72L, R105H, H106D
notes: pMECS-expressed; also called VHH numbered 62
B20: SEQ ID NO 63 (VHH)
VHH: B8 VHH with T19R, Y31N, R38S, G54D, P72L, S85R, R105H, H106N, P119Q
notes: pMECS-expressed; also called VHH numbered 63
B21: SEQ ID NO 78 (VHH)
VHH: B8 VHH with T19R, I28L, R38S, I53V, P72L, R105H, H106N, P119Q
notes: pMECS-expressed; also called VHH numbered 78
B22: SEQ ID NO 48 (VHH)
VHH: B8 VHH with T19R, Y31N, R38S, G54D, P58T, P72L, R105H, H106N, T110A, P119Q
notes: pMECS-expressed; also called VHH numbered 48
B23: SEQ ID NO 56 (VHH)
VHH: B8 VHH with T19R, T26P, Y31A, R38S, P72L, N77S, R105H, H106N, P119Q
notes: pMECS-expressed; also called VHH numbered 56
B24: SEQ ID NO 59 (VHH)
VHH: B8 VHH with T19R, A24C, Y31N, R38S, A61T, P72L, V79L, R105H, H106N, P119Q
notes: pMECS-expressed; also called VHH numbered 59
B25: SEQ ID NO 76 (VHH)
VHH: B8 VHH with T19R, Y31N, A40V, G54D, P58T, P72L
notes: pMECS-expressed; also called VHH numbered 76
B26: SEQ ID NO 69 (VHH)
VHH: B8 VHH with T19R, Y31N, R38S, P72L, R105H, H106N, P119Q
notes: pMECS-expressed; also called VHH numbered 69
B27: SEQ ID NO 84 (VHH)
VHH: B8 VHH with T19R, Y29D, Y31N, G54D, P72L
notes: pMECS-expressed; also called VHH numbered 84
B28: SEQ ID NO 80 (VHH)
VHH: B8 VHH with T19R, A23V, Y31N, R38S, G54D, P72L, H106S, P119Q
notes: pMECS-expressed; also called VHH numbered 80
B29: SEQ ID NO 81 (VHH)
VHH: B8 VHH with T19R, Y31N, R38S, G54D, P58T, P72L, H106N, P119Q
notes: pMECS-expressed; also called VHH numbered 81
B30: SEQ ID NO 85 (VHH)
VHH: B8 VHH with T19R, Y31N, R38S, G54A, G56D, P72L, H106N, P119Q
notes: pMECS-expressed; also called VHH numbered 85
B31: SEQ ID NO 66 (VHH)
VHH: B8 VHH with T19R, S30N, Y31N, R38S, I53V, P58T, P72L, R105H, H106N, P119Q
notes: pMECS-expressed; also called VHH numbered 66
B32: SEQ ID NO 49 (VHH)
VHH: B8 VHH with T19R, Y31I, R38S, G54D, P72L, H106N, P119Q
notes: pMECS-expressed; also called VHH numbered 49
B33: SEQ ID NO 54 (VHH)
VHH: QVQLQESGGGSVQTGGSLRLSCAPSTSIYDNNYMAWFSQAPGKGREGVAAIYIDDGRPYYADSVKGRFTISLDSAKNTVYLQMNSLKPEDTAMYYCAAAPGPLSHNYWYTSANYDYWGQGTQVTVSS
notes: pMECS-expressed; also called VHH numbered 54
B34: SEQ ID NO 47 (VHH)
VHH: B33 VHH with A23T, P24A, D30N, A40S, I51V, I53M, V79M, H105R
notes: pMECS-expressed; also called VHH numbered 47
B35: SEQ ID NO 83 (VHH)
VHH: QVQLQESGGGLVQTGGSLRLSCAASTSIYSNNYLAWFSQAPGKGREGVAAVYIGDGRPYYADSVKGRFPISLNSAQNKVYLQMNSLKPEDTAMYYCAAAPGPLSRNYWYTSANYDYWGQGTQVTVSS
notes: pMECS-expressed; also called VHH numbered 83
B36: SEQ ID NO 57 (VHH)
VHH: B33 VHH with P24A, D30S, N31I, I51V, P88S, H105R
notes: pMECS-expressed; also called VHH numbered 57
B37: SEQ ID NO 53 (VHH)
VHH: B33 VHH with P24A, D30S, I51V, H105R
notes: pMECS-expressed; also called VHH numbered 53
B38: SEQ ID NO 75 (VHH)
VHH: B8 VHH with T19R, Y31N, V64A, P72L, Q82H
notes: pMECS-expressed; also called VHH numbered 75
B39: SEQ ID NO 51 (VHH)
VHH: B33 VHH with A23T, P24A, D30S, N32S, I51V, H105R, N106H
notes: pMECS-expressed; also called VHH numbered 51
B40: SEQ ID NO 67 (VHH)
VHH: B33 VHH with A23T, P24A, D30S, I51V, H105R
notes: pMECS-expressed; also called VHH numbered 67
B41: SEQ ID NO 86 (VHH)
VHH: B33 VHH with E6D, P24A, D30S, N31I, I51V, I53T, D54G, H105R
notes: pMECS-expressed; also called VHH numbered 86

biological target: T1, human PD-L1 protein (coated antigen) (human, UniProt Q9NZQ7 19-238, limits assumed); assay: PE-ELISA, crude extract on coated PD-L1
T1 construct: Construct not described; also called PD-L1 antigen; antigenic protein PD-L1
T1 sequence (Q9NZQ7 19-238 limits assumed): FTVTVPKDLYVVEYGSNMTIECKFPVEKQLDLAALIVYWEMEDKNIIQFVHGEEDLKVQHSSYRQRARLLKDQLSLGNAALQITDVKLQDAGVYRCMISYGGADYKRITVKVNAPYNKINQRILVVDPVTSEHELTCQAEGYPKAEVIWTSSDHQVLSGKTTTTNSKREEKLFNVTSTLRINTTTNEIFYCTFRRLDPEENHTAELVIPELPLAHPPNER
Description: (1) From the cell culture dishes containing phage after 3-4 rounds of screening in Example 2, 1000 individual colonies were selected and inoculated into TB medium containing 100 μg/ml of ampicillin (1 liter of TB medium contains 2.3 g of potassium dihydrogen phosphate, 12.52 g of dipotassium hydrogen phosphate, 12 g of peptone, 24 g of yeast extract, 4 ml of glycerol), after growth to log phase, add a final concentration of […] of IPTG, culture at 28° C. overnight. (2) The crude antibody was obtained by the infiltration method, and the antibody was transferred to an antigen-coated ELISA plate and placed at room temperature for 1 hour. (3) Unbound antibody was washed away with PBST, and a mouse anti-HA tag antibody (anti-mouse anti-HA antibody, purchased from Beijing Kangwei Century Biotechnology Co., Ltd.) was added and placed at room temperature for 1 hour. (4) Unbound antibody was washed away with PBST, and anti-mouse alkaline phosphatase conjugate (goat anti-mouse alkaline phosphatase-labeled antibody, purchased from Amytech Co., Ltd.) was added and placed at room temperature for 1 hour. (5) Wash the unbound antibody with PBST, add alkaline phosphatase coloring solution, and read the absorbance at 405 nm on an ELISA apparatus. (6) When the OD value of the sample well is more than 3 times the OD value of the control well (Ratio+/−>3), it is judged as a positive clone hole. (7) The bacteria of the positive clone well were shaken in a LB liquid containing 100 μg per ml to extract a plasmid and perform sequencing.

OD ratio (experimental group (A405 nm)/control group (A405 nm)), > 20:
B1, B2, B3, B4, B5, B6, B7, B8, B9, B10, B11, B12, B13, B14, B15, B16, B17, B18, B19, B20, B21, B22, B23, B24, B25, B26, B27, B28, B29, B30, B31, B32, B33, B34, B35, B36, B37, B38, B39, B40, B41
